What was measured:
Conditions in all cases: tags: R&D Systems; chain copies: 2
NT-3 (neurotrophin-3) = target: T1, NT-3 (neurotrophin-3) (Homo sapiens, UniProt P20783 P20783:139-257); experiment: cell_activity; TF-1
T1 sequence: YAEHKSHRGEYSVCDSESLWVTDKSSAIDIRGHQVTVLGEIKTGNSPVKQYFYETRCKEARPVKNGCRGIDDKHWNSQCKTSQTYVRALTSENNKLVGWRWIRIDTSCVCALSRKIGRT

NT-4 (neurotrophin-4) = target: T2, NT-4 (neurotrophin-4) (Homo sapiens, UniProt P34130 P34130:81-210); experiment: cell_activity; TF-1
T2 sequence: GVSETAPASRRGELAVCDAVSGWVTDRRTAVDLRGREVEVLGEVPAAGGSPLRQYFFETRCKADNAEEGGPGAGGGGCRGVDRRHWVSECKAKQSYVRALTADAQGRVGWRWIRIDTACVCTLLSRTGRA

[1] = target: T3, NGF (nerve growth factor) (Homo sapiens, UniProt P01138 P01138:122-241); experiment: cell_activity; neurite; TF-1 0.036
T3 sequence (P01138 122-241, one chain of several): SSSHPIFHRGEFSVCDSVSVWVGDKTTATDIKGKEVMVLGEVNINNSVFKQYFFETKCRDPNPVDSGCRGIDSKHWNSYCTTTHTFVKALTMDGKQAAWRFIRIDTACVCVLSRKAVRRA

[2] = target: T3, NGF (nerve growth factor); experiment: cell_activity; neurite; TF-1 0.075
[3] = target: T3, NGF (nerve growth factor); experiment: cell_activity; neurite; TF-1 0.030
[4] = target: T3, NGF (nerve growth factor); experiment: cell_activity; neurite; TF-1 0.071
[5] = target: T3, NGF (nerve growth factor); experiment: cell_activity; neurite; TF-1 0.035
[6] = target: T3, NGF (nerve growth factor); experiment: cell_activity; neurite; TF-1 0.033
[7] = target: T3, NGF (nerve growth factor); experiment: cell_activity; neurite; TF-1 0.046
[8] = target: T3, NGF (nerve growth factor); experiment: cell_activity; neurite; TF-1 0.027
[9] = target: T3, NGF (nerve growth factor); experiment: cell_activity; neurite; TF-1 0.043
[10] = target: T3, NGF (nerve growth factor); experiment: cell_activity; neurite; TF-1 0.025
[11] = target: T3, NGF (nerve growth factor); experiment: cell_activity; neurite; TF-1 0.028
Description: (§1) With the neurite length per cell obtained by the addition of NGF alone as inhibitory activity 0%, and that of the cell obtained by NGF free culture for 2 days as inhibitory activity 100%, the inhibitory activity of the aptamer was calculated from the neurite length per cell obtained by culturing with the addition of NGF and the aptamer in mixture.
(§2) Two NGF receptor (human TrkA and human p75) genes were introduced into TF-1 cells (ATCC Number: CRL-2003), which is a human erythroleukemic cell line, by using a retrovirus vector to give cells that highly express two receptors simultaneously and stably. The cells were suspended in an RPMI-1640 medium containing 20% fetal bovine serum, and seeded in a white 96 well flat-bottom plate at 1000 cells (50 μL) per well. […] With the amount of luminescence per well obtained by the addition of NGF alone and culture of the cells for 3 days as inhibitory activity 0%, and that of the well obtained by NGF free culture for 3 days as inhibitory activity 100%, the inhibitory activity of the aptamer was calculated from the amount of luminescence per well obtained by culturing with the addition of NGF and the aptamer in mixture.

[12] = target: T3, NGF (nerve growth factor); experiment: cell_activity; neurite; TF-1 0.031
Description: as §1, §2

[13] = target: T3, NGF (nerve growth factor); experiment: cell_activity; neurite; TF-1 0.083
[14] = target: T3, NGF (nerve growth factor); experiment: cell_activity; neurite; TF-1 0.087
[15] = target: T3, NGF (nerve growth factor); experiment: cell_activity; neurite; TF-1 0.093
[16] = target: T3, NGF (nerve growth factor); experiment: cell_activity; neurite; TF-1 0.097
Description: as §1, §2

[17] = target: T3, NGF (nerve growth factor); experiment: cell_activity; neurite; TF-1 0.073
[18] = target: T3, NGF (nerve growth factor); experiment: cell_activity; neurite; TF-1 0.042
[19] = target: T3, NGF (nerve growth factor); experiment: cell_activity; neurite; TF-1 0.024
[20] = target: T3, NGF (nerve growth factor); experiment: cell_activity; neurite; TF-1 0.016
[21] = target: T3, NGF (nerve growth factor); experiment: cell_activity; neurite; TF-1 0.015
[22] = target: T3, NGF (nerve growth factor); experiment: cell_activity; neurite; TF-1 0.056
[23] = target: T3, NGF (nerve growth factor); experiment: cell_activity; neurite; TF-1 0.047
[24] = target: T3, NGF (nerve growth factor); experiment: cell_activity; neurite; TF-1 0.048
[25] = target: T3, NGF (nerve growth factor); experiment: cell_activity; neurite; TF-1 0.039
Description: as §1, §2

[26] = target: T3, NGF (nerve growth factor); experiment: cell_activity; neurite; TF-1 0.081
[27] = target: T3, NGF (nerve growth factor); experiment: cell_activity; neurite; TF-1 0.266
[28] = target: T3, NGF (nerve growth factor); experiment: cell_activity; neurite; TF-1 0.363

GGGUCCUGGAUAAGAGUUUCCGUCUCGUAUCCUGUUACCC (ssRNA, as 82(1) except 2'-OMe U11) [SEQ ID NO: 82(4)]
IC50 (NT-3 (neurotrophin-3)): 30.4 nM | IC50 (NT-4 (neurotrophin-4)): 3.37 nM | IC50 [1]: 0.139 nM

GGGUCCUGGAUAAGAGUUUCCGUCUCGUAUCCUGUUACCC (ssRNA, as 82(1) except 2'-OMe C20) [SEQ ID NO: 82(5)]
IC50 (NT-3 (neurotrophin-3)): 51.2 nM | IC50 (NT-4 (neurotrophin-4)): < 3 nM | IC50 [2]: 0.269 nM

GGGUCCUGGAUAAGAGUUUCCGUCUCGUAUCCUGUUACCC (ssRNA, as 82(1) except 2'-OMe U23) [SEQ ID NO: 82(7)]
IC50 (NT-3 (neurotrophin-3)): < 30 nM | IC50 (NT-4 (neurotrophin-4)): 3.74 nM | IC50 [3]: 0.143 nM

GGGUCCUGGAUAAGAGUUUCCGUCUCGUAUCCUGUUACCC (ssRNA, as 82(1) except 2'-OMe U25) [SEQ ID NO: 82(8)]
IC50 [4]: 0.284 nM

GGGUCCUGGAUAAGAGUUUCCGUCUCGUAUCCUGUUACCC (ssRNA, as 82(1) except 2'-OMe C26) [SEQ ID NO: 82(9)]
IC50 (NT-3 (neurotrophin-3)): 34.8 nM | IC50 (NT-4 (neurotrophin-4)): < 3 nM | IC50 [5]: 0.252 nM

GGGUCCUGGAUAAGAGUUUCCGUCUCGUAUCCUGUUACCC (ssRNA, as 82(1) except 2'-OMe U28) [SEQ ID NO: 82(10)]
IC50 (NT-3 (neurotrophin-3)): 35.3 nM | IC50 (NT-4 (neurotrophin-4)): < 3 nM | IC50 [6]: 0.128 nM

GGGUCCUGGAUAAGAGUUUCCGUCUCGUAUCCUGUUACCC (ssRNA, as 82(1) except 2'-OMe U30) [SEQ ID NO: 82(11)]
IC50 (NT-3 (neurotrophin-3)): 38.1 nM | IC50 (NT-4 (neurotrophin-4)): 3.42 nM | IC50 [7]: 0.253 nM

GGGUCCUGGAUAAGAGUUUCCGUCUCGUAUCCUGUUACCC (ssRNA, as 82(1) except 2'-OMe C31) [SEQ ID NO: 82(12)]
IC50 (NT-3 (neurotrophin-3)): 34.7 nM | IC50 (NT-4 (neurotrophin-4)): < 3 nM | IC50 [8]: 0.127 nM

GGGUCCUGGAUAAGAGUUUCCGUCUCGUAUCCUGUUACCC (ssRNA, as 82(1) except 2'-OMe U35) [SEQ ID NO: 82(15)]
IC50 (NT-3 (neurotrophin-3)): < 30 nM | IC50 (NT-4 (neurotrophin-4)): 8.35 nM | IC50 [9]: 0.127 nM

GGGUCCUGGAUAAGAGUUUCCGUCUCGUAUCCUGUUACCC (ssRNA, as 82(1) except 2'-OMe C39) [SEQ ID NO: 82(17)]
IC50 (NT-3 (neurotrophin-3)): < 30 nM | IC50 (NT-4 (neurotrophin-4)): < 3 nM | IC50 [10]: 0.127 nM

GGGUCCUGGAUAAGAGUUUCCGUCUCGUAUCCUGUUACCC (ssRNA, as 82(1) except 2'-OMe C40) [SEQ ID NO: 82(18)]
IC50 (NT-3 (neurotrophin-3)): 38.7 nM | IC50 (NT-4 (neurotrophin-4)): < 3 nM | IC50 [11]: 0.244 nM

GGGUCCUGGAUAAGAGUUUCCGUCUCGUAUCCUGUUACCC (ssRNA, as 82(1) except 2'-OMe U4,C6,U11,C21,U23,C26,U30,C32,U35,C38-40) [SEQ ID NO: 82(20)]
IC50 (NT-3 (neurotrophin-3)): < 30 nM | IC50 [12]: 0.244 nM

GGGUCCUGGAUAAGAGUUUCCGUCUCGUAUCCUGUUACCC (ssRNA, as 82(1) except 2'-OMe U4,C6,U11,C21,U23,C26,U28,U30,C32,U35,C38-40) [SEQ ID NO: 82(22)]
IC50 (NT-3 (neurotrophin-3)): < 30 nM | IC50 [13]: < 0.1 nM

GGGUCCUGGAUAAGAGUUUCCGUCUCGUAUCCUGUUACCC (ssRNA, as 82(25) except 2'-OMe C20) [SEQ ID NO: 82(26)]
IC50 (NT-3 (neurotrophin-3)): < 30 nM | IC50 [14]: 0.13 nM

GGGUCCUGGAUAAGAGUUUCCGUCUCGUAUCCUGUUACCC (ssRNA, as 82(1) except dC5) [SEQ ID NO: 82(27)]
IC50 [15]: 0.25 nM

GGGUCCUGGAUAAGAGUUUCCGUCUCGUAUCCUGUUACCC (ssRNA, as 82(25) except dU7) [SEQ ID NO: 82(37)]
IC50 [16]: 0.098 nM

GGGUCCUGGAUAAGAGUUUCCGUCUCGUAUCCUGUUACCC (ssRNA, as 82(25) except dU25) [SEQ ID NO: 82(40)]
IC50 [17]: 0.239 nM

GGGUCCUGGAUAAGAGUUUCCGUCUCGUAUCCUGUUACCC (ssRNA, as 82(25) except dU36) [SEQ ID NO: 82(41)]
IC50 [18]: 0.084 nM

GGGUCCUGGAUAAGAGUUUCCGUCUCGUAUCCUGUUACCC (ssRNA, as 82(25) except 2'-OMe A10) [SEQ ID NO: 82(45)]
IC50 [19]: 0.037 nM

B1: SEQ ID NO: 78(2) (ssRNA)
RNA: GGGUCCUGGCCAAGAGUUUCCGUCUCGUGGUCUGUUACCC
modifications: 2'-OMe G (G8,G34 2'-OH), dA, 2'-F C/U except 2'-OMe U4,C6,C21,U23,C26,U28,U31,C32,U35,C38-40; 5',3' idT
IC50 [20]: 0.045 nM

B2: SEQ ID NO: 78(3) (ssRNA)
RNA: GGGUCCUGGCCAAGAGUUUCCGUCUCGUGGUCUGUUACCC
modifications: 2'-OMe G (G8,G34 2'-OH), dA, 2'-F C/U except 2'-OMe U4,C6,C10,C11,C21,U23,C26,U28,C32,U35,C38-40; 5',3' idT
IC50 [21]: 0.045 nM

GGGUCCUGGAUAAGAGUUUCCGUCUCGUAUCCUGUUACCC (ssRNA, as 82(25) except 2'-OMe A10,A15,A29,A37) [SEQ ID NO: 82(48)]
IC50 [22]: 0.252 nM

GGGUCCUGGAUAAGAGTUUCCGUCUCGUAUCCTGUUACCC (ssRNA, as 82(25) except dT17,dT33,dU36) [SEQ ID NO: 163]
IC50 [23]: 0.113 nM

GGGUCCUGGAUAAGAGTUUCCGUCUCGUAUCCTGUUACCC (ssRNA, as 82(25) except dU7,dT17,dT33) [SEQ ID NO: 164]
IC50 [24]: 0.132 nM

GGGUCCUGGAUAAGAGTUUCCGUCUCGUAUCCTGUUACCC (ssRNA, as 82(25) except dT17,dT33,dU36, 2'-OMe A37) [SEQ ID NO: 165]
IC50 [25]: 0.139 nM

GGGUCCUGGAUAAGAGUUUCCGUCUCGUAUCCUGUUACCC (ssRNA, as 82(48) without 5' idT; PS between A12 and A13) [SEQ ID NO: 82(60)]
IC50 [26]: 0.034 nM

GGGUCCUGGAUAAGAGUUUCCGUCUCGUAUCCUGUUACCC (ssRNA, as 82(48) without 5' idT; PS between G34 and U35) [SEQ ID NO: 82(63)]
IC50 [27]: 0.046 nM

GGGUCCUGUCUAAGAGUUUCCGUCUCGUAGACUGUUACCC (ssRNA, 2'-F C/U, dA, 2'-OH G) [SEQ ID NO: 111]
IC50 [28]: 0.252 nM

Reference: patent US20140235701, “NGF APTAMER AND APPLICATION THEREOF” (RIBOMIC INC., published 2014)
